B1: Ehg1-Cub-LV [S. cerevisiae] / NubG-Bap2 [S. cerevisiae] (parent)
chain 1: MRSFVTNNDIPVGYVTPKFPSLYWPINNSKYNTAFLYYISDIWKFSLYWTLIFNGAFYVTAGVYASLTHRKKAGSVWIFVMYVLYGGVQGLTTGTVMGFLIGAIYRSGLFSMSTWVPLCCAVVQILFDVVLSYSMVGSVM
chain 2: MLSSEDFGSSGKKETSPDSISIRSFSAGNNFQSSSSEKTYSKQKSGSDKLIHRFADSFKRAEGSTTRTKQINENTSDLEDGVESITSDSKLKKSMKSRHVVMMSLGTGIGTGLLVANAKGLHYGGPAALIIGYILVSFVTYFMIQAAGEMAVTYPTLPANFNAYSSIFISKSFGFATVWLYCFQWLTVLPLELITASMTIQFWNDKINPDIYILIFYVFLVFIHFFGVKAYGETEFIFNCCKILMIAGFIILSIVINCGGAGNDGYIGATYWHNPGAFAGDTSIGRFKNVCYILVTAYFSFGGMELFALSVQEQSNPRKSTPVAAKRSIYRIVVIYLLTMILIGFNVPYNDDQLMGAGGSATHASPYVLAASIHGVKIVPHIINAVILISVVSVANSSLYAGPRLICSLAQQGYAPKFLDYVDREGRPLRALIVCCVFGVIAFVAASSKEEIVFTWLAAIAGLSELFTWTSIMLSHLRFRQAMKVQGRSLDELGYKATTGIWGSIYGVFFNILVFVAQFWVALAPLGNGGKCDAESFFQNYLAFPIWLAFYFGYMVYNRDFTLLNPLDKIDLDFHRRIYDPELMRQEDEENKEKLRNMSLMRKAYHFWC
B2: Ehg1-Cub-LV [S. cerevisiae] / NubG-Hip1 [S. cerevisiae] (parent)
chain 1: B1 chain 1
chain 2: MPRNPLKKEYWADVVDGFKPATSPAFENEKESTTFVTELTSKTDSAFPLSSKDSPGINQTTNDITSSDRFRRNEDTEQEDINNTNLSKDLSVRHLLTLAVGGAIGTGLYVNTGAALSTGGPASLVIDWVIISTCLFTVINSLGELSAAFPVVGGFNVYSMRFIEPSFAFAVNLNYLAQWLVLLPLELVAASITIKYWNDKINSDAWVAIFYATIALANMLDVKSFGETEFVLSMIKILSIIGFTILGIVLSCGGGPHGGYIGGKYWHDPGAFVGHSSGTQFKGLCSVFVTAAFSYSGIEMTAVSAAESKNPRETIPKAAKRTFWLITASYVTILTLIGCLVPSNDPRLLNGSSSVDAASSPLVIAIENGGIKGLPSLMNAIILIAVVSVANSAVYACSRCMVAMAHIGNLPKFLNRVDKRGRPMNAILLTLFFGLLSFVAASDKQAEVFTWLSALSGLSTIFCWMAINLSHIRFRQAMKVQERSLDELPFISQTGVKGSWYGFIVLFLVLIASFWTSLFPLGGSGASAESFFEGYLSFPILIVCYVGHKLYTRNWTLMVKLEDMDLDTGRKQVDLTLRREEMRIERETLAKRSFVTRFLHFWC
B3: Ehg1-Cub-LV [S. cerevisiae] / NubG-Fur4 [S. cerevisiae] (parent)
chain 1: B1 chain 1
chain 2: MPDNLSLHLSGSSKRLNSRQLMESSNETFAPNNVDLEKEYKSSQSNITTEVYEASSFEEKVSSEKPQYSSFWKKIYYEYVVVDKSILGVSILDSFMYNQDLKPVEKERRVWSWYNYCYFWLAECFNINTWQIAATGLQLGLNWWQCWITIWIGYGFVGAFVVLASRVGSAYHLSFPISSRASFGIFFSLWPVINRVVMAIVWYSVQAYIAATPVSLMLKSIFGKDLQDKIPDHFGSPNATTYEFMCFFIFWAASLPFLLVPPHKIRHLFTVKAVLVPFASFGFLIWAIRRAHGRIALGSLTDVQPHGSAFSWAFLRSLMGCMANFSTMVINAPDFSRFSKNPNSALWSQLVCIPFLFSITCLIGILVTAAGYEIYGINYWSPLDVLEKFLQTTYNKGTRAGVFLISFVFAVAQLGTNISANSLSCGTDMSAIFPKFINIKRGSLFCAAMALCICPWNLMATSSKFTMALSAYAIFLSSIAGVVCSDYFVVRRGYIKLTHIYSHQKGSFYMYGNRFGINWRALAAYLCGVAPCLPGFIAEVGAPAIKVSDGAMKLYYLSYWVGYGLSFSSYTALCYFFPVPGCPVNNIIKDKGWFQRWANVDDFEEEWKDTIERDDLVDDNISVYEHEHEKTFI

Variants of: B1
Assay: split-ubiquitin yeast two-hybrid (growth of strain NMY51)
Conditions: with NubG-Bap2 [S. cerevisiae]; sub-panel Ehg1–Bap2; SC–His medium; 24 h starting at OD600 0.1; NubG-vector control est. 0.46; parent: 1.3; read off a plot

Q: Which response does the source give for chain 1 F19A here?
A: 0.72 OD600

Q: With chain 1 P17A P20A as the variant, how does the response read?
A: 0.5 OD600

Same assay, conditions: with NubG-Bap2 [S. cerevisiae]; sub-panel Ehg1–Bap2; SC–His–Ade medium; 24 h starting at OD600 0.1; NubG-vector control est. 0.17; parent: 0.45; read off a plot

Q: With chain 1 F19A as the variant, how does the response read?
A: 0.27 OD600

Q: How did the response turn out when chain 1 P17A P20A was run?
A: 0.17 OD600

Variants of: B2
Assay: as above
Conditions: with NubG-Hip1 [S. cerevisiae]; sub-panel Ehg1–Hip1; SC–His medium; 24 h starting at OD600 0.1; NubG-vector control est. 0.48; parent: 1.8; read off a plot

Q: How did the response turn out when chain 1 P17A P20A was run?
A: 1.3 OD600

Q: For chain 1 F19A, which response is on record?
A: 1.5 OD600

Same assay, conditions: with NubG-Hip1 [S. cerevisiae]; sub-panel Ehg1–Hip1; SC–His–Ade medium; 24 h starting at OD600 0.1; NubG-vector control est. 0.20; parent: 0.73; read off a plot

Q: chain 1 P17A P20A was tested. Which response did it give?
A: 0.5 OD600

Q: With chain 1 F19A as the variant, how does the response read?
A: 0.75 OD600

Variants of: B3
Assay: as above
Conditions: with NubG-Fur4 [S. cerevisiae]; sub-panel Ehg1–Fur4; SC–His medium; 24 h starting at OD600 0.1; NubG-vector control est. 0.40; parent: 1.8; read off a plot

Q: Which response does the source give for chain 1 P17A P20A here?
A: 0.45 OD600

Q: How did the response turn out when chain 1 F19A was run?
A: 0.65 OD600

Same assay, conditions: with NubG-Fur4 [S. cerevisiae]; sub-panel Ehg1–Fur4; SC–His–Ade medium; 24 h starting at OD600 0.1; NubG-vector control est. 0.16; parent: 0.95; read off a plot

Q: Which response does the source give for chain 1 P17A P20A here?
A: 0.17 OD600

Q: chain 1 F19A was tested. Which response did it give?
A: 0.22 OD600
